Positions of bridges follow the written chain, without caps; N, C: chain ends. Non-standard residues stand in square brackets, D forms with d. No end group written: not given here. Pen = CC(C)(S)[C@H](N)C(=O)O; NMeA = CN[C@@H](C)C(=O)O

Our source for the Kd and IC50 values is patent US8906844B2 (SYNTONIX PHARMACEUTICALS, dated 2014).

In test [1] the target is T1, soluble human FcRn (shFcRn) (human, UniProt P55899 24-297; P61769 21-119, biotinylated with Sulfo-NHS-LC-Biotin in the ELISA; amine-coupled to a CM5 chip in SPR).
T1 construct: also called biotinylated shFcRn
T1 sequence (P55899 24-297 limits assumed, chain 1 of 2): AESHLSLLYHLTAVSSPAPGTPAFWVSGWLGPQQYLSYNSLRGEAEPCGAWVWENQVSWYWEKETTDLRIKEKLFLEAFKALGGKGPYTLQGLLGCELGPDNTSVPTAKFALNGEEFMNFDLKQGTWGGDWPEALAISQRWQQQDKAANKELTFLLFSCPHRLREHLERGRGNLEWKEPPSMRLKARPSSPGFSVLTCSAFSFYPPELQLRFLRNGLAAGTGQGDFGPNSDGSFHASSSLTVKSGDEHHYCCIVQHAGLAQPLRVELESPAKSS
T1 sequence (P61769 21-119 limits assumed, chain 2 of 2): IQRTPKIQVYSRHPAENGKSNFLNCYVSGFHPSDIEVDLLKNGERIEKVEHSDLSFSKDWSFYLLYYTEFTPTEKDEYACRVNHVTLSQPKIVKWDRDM
Kind of test: SPR, pH 6. The method, then: (§1) The following steps were performed to cross-link soluble human or cynomolgus FcRn to the dextran surface of a CM5 sensor chip (Biacore AB, Uppsala, Sweden) by an amine coupling reaction involving 1-ethyl-(3-dimethylaminopropyl)-carbodiimide hydrochloride (EDC) (Biacore AB, Uppsala, Sweden) and N-hydroxysuccinimide (NHS) (Biacore AB, Uppsala, Sweden) as recommended by Biacore (BIAapplications Handbook, version AB, section 4.2, Biacore AB, Uppsala, Sweden). The FcRn protein was diluted in 50 mM sodium acetate, pH 4.5 (Biacore AB, Uppsala, Sweden) to a concentration of 10 to 30 µg/ml and used to coat one flow cell on the sensor chip. Residual sites on the FcRn flow cell were blocked with 1 M ethanolamine hydrochloride pH 8.5 (Biacore AB, Uppsala, Sweden). A control flow cell was blocked with ethanolamine for reference subtraction. For analysis of the monomeric peptides, FcRn was coated to a final density of 4000-5000 response units (RU). For analysis of the peptide dimers, FcRn was coated to a density of 2000-2500 RU. All SPR measurements were performed using a BIACORE 3000 Instrument (Biacore AB Uppsala, Sweden). For measurements done at either pH 6 or pH 7.4, experiments were performed in 50 mM phosphate, 100 mM sodium chloride, 0.01% surfactant P20 (Biacore AB, Uppsala, Sweden).
(§2) A. Representative Procedure for the Determination of Binding Constant of Monomeric Peptides Ten 2-fold dilutions of the peptide were injected over the FcRn-CM5 chip at a rate of 20 µl/min for 2 min. The peptide was dissociated from the chip for 2.5 minutes with buffer. Any remaining peptide was removed from the chip with a 30 second injection of HBS-P buffer (Biacore AB, Uppsala, Sweden) at a rate of 30 µl/min. Sensorgrams were generated and analyzed using BiaEval software version 3.1 (Biacore AB, Uppsala, Sweden). The equilibrium RU observed for each injection was plotted against concentration. The equilibrium K_D values were derived by analysis of the plots using the steady state affinity model included in the BiaEval software.
Background: SPR reads the build-up and loss of mass on a sensor chip optically.

Test [2] addresses T1, soluble human FcRn (shFcRn). Kind of test: competition ELISA vs human IgG. As for the experimental part: The wells were coated with 100 μl/well of 1 μg/ml biotinylated-shFcRn in Buffer A. The plate was sealed and incubated at 37° C. for 2 hours. Afterwards, the plate was washed with 200 μl/well of Buffer B (Buffer B: 100 mM MES pH 6, 150 mM NaCl, 0.5% BSA IgG-free (Jackson ImmunoResearch, West Grove, Pa.), 0.05% Tween-20). […] To allow for mixing, the plate was rocked for 2 minutes, sealed and incubated at 37° C. for 2 hours. […] The plate was covered, incubated for 30 minutes at room temperature and washed 4 times with 200 μl/well of ice-cold buffer B. SureBlue TMB substrate solution (100 μl/well, KPL, Gaithersburg, Md.) was added and the plate was allowed to incubate at room temperature until color developed, which took 5 to 10 minutes. Once color developed, 100 μl/well of TMB stop solution (KPL, Gaithersburg, Md.) was added and the absorbance was measured at 450 nm.
For orientation: An ELISA detects its analyte on a solid surface through an enzyme-linked reagent.

The target is the same in test [3]. Nature of the test: SPR, pH 7.4. The method, then: as §1, §2

Turning to QRFXTGHFXXLYPCNGP (Pen4; D-Pro9; D-Pro10; disulfide; C-terminal amide) [Peptide No. 152], the Kd in test [1] came to 3.3 µM. The molecule further yielded a 50% inhibitory concentration (IC50) in test [2] of 21 µM.
Turning to QRFVTGHFGXLYPANGP (D-Pro10; unbridged; C-terminal amide) [Peptide No. 157], the Kd in test [1] was found to be 16 µM. Also, the half-maximal inhibitory concentration (IC50) in test [2] was determined as 195 µM.
In test [1], QRFVTGHFGXWYPINGP (D-Pro10; unbridged; C-terminal amide) [Peptide No. 190] had a Kd of 4.2 µM. The molecule also yielded an IC50 in test [2] of 49 µM.
Taken in the same sequence, the figures for QRFXTGHFXXLYPCNGP (Pen4; D-Phe9; D-Pro10; disulfide; C-terminal amide) [Peptide No. 150] were 0.72 µM and 5.9 µM.
For QRFXTXHFGGLYPCNGP (Pen4; Sar6; disulfide; C-terminal amide) [Peptide No. 108], in that order: 88 µM and over 125 µM.
Taken in the same sequence, the figures for QRFXTGHFGXLYPCNGP (Pen4; D-Pro10; disulfide; C-terminal amide) [Peptide No. 40] were 0.23 µM and 1.4 µM.

B1: Peptide No. 211 (peptide)
peptide: FVTGHFG[dP]WYPA-NH2
modifications: N-terminus assumed
SMILES: CC(C)[C@H](NC(=O)[C@@H](N)Cc1ccccc1)C(=O)N[C@H](C(=O)NCC(=O)N[C@@H](Cc1c[nH]cn1)C(=O)N[C@@H](Cc1ccccc1)C(=O)NCC(=O)N1CCC[C@@H]1C(=O)N[C@@H](Cc1c[nH]c2ccccc12)C(=O)N[C@@H](Cc1ccc(O)cc1)C(=O)N1CCC[C@H]1C(=O)N[C@@H](C)C(N)=O)[C@@H](C)O
In test [1], B1 gave a dissociation constant (Kd) of 8 µM.
As to QRFXTGHFGXLYPCNGP (Pen4; D-His10; disulfide; C-terminal amide) [Peptide No. 42], the Kd in test [1] is 2 µM; in test [3], 20 µM.
For QRFXTGHFXGLYPCNGP (Pen4; D-His9; disulfide; C-terminal amide) [Peptide No. 50], the affinity in test [1], expressed as Kd, was 0.41 µM. In test [2], the 50% inhibitory concentration (IC50) turned out to be 3.6 µM.
As to QRFCTGHFGXLYPCNGP (D-Ala10; disulfide; C-terminal amide) [Peptide No. 23], in test [3], binding was put at a Kd of 184 µM.
The molecule QRFXTGHFGGXYPCNGP (Pen4; NMeLeu11; disulfide; C-terminal amide) [Peptide No. 113] gave a Kd in test [1] of 0.086 µM. The molecule also yielded a half-maximal inhibitory concentration (IC50) in test [2] of 1.6 µM.
In test [1], QRFXTGHFXGXYPCNGP (Pen4; D-Ala9; NMeLeu11; disulfide; C-terminal amide) [Peptide No. 154] came in with a Kd of 0.23 µM. The molecule further displayed an IC50 in test [2] of 3.2 µM.

B2: Peptide No. 196 (peptide)
peptide: QRFC[NMeA]GHFGGLYPCNGP-NH2
modifications: disulfide 4-14; N-terminus assumed
SMILES: CC(C)C[C@@H]1NC(=O)CNC(=O)CNC(=O)[C@H](Cc2ccccc2)NC(=O)[C@H](Cc2c[nH]cn2)NC(=O)CNC(=O)[C@H](C)N(C)C(=O)[C@@H](NC(=O)[C@H](Cc2ccccc2)NC(=O)[C@H](CCCNC(=N)N)NC(=O)[C@@H](N)CCC(N)=O)CSSC[C@@H](C(=O)N[C@@H](CC(N)=O)C(=O)NCC(=O)N2CCC[C@H]2C(N)=O)NC(=O)[C@@H]2CCCN2C(=O)[C@H](Cc2ccc(O)cc2)NC1=O
In turn, B2 yielded a dissociation constant (Kd) in test [1] of 18 µM. In addition, in test [2], the IC50 amounted to 169 µM.

B3: Peptide No. 213 (peptide)
peptide: QRF[Pen][NMeA]GHFGGLYPCNGP-NH2
modifications: disulfide 4-14; N-terminus assumed
SMILES: CC(C)C[C@@H]1NC(=O)CNC(=O)CNC(=O)[C@H](Cc2ccccc2)NC(=O)[C@H](Cc2c[nH]cn2)NC(=O)CNC(=O)[C@H](C)N(C)C(=O)[C@@H](NC(=O)[C@H](Cc2ccccc2)NC(=O)[C@H](CCCNC(=N)N)NC(=O)[C@@H](N)CCC(N)=O)C(C)(C)SSC[C@@H](C(=O)N[C@@H](CC(N)=O)C(=O)NCC(=O)N2CCC[C@H]2C(N)=O)NC(=O)[C@@H]2CCCN2C(=O)[C@H](Cc2ccc(O)cc2)NC1=O
B3 gave a dissociation constant (Kd) in test [1] of 1 µM. Further, in test [2], the IC50 came out at 5.5 µM.
Turning to QRFXTGHFXGXYPCNGP (Pen4; D-Phe9; NMeLeu11; disulfide; C-terminal amide) [Peptide No. 153], in test [1], the Kd came out at 0.24 µM. The molecule also gave a concentration for half-maximal inhibition (IC50) in test [2] of 1.3 µM.
Molecule QRFCTGHFXGLYPCNGP (D-Ala9; disulfide; C-terminal amide) [Peptide No. 22] registered a dissociation constant Kd in test [3] of 137 µM. In test [2], this molecule registered a 50% inhibitory concentration (IC50) of 48 µM.

B4: Peptide No. 155 (peptide)
peptide: QRF[Pen]TGHF[dF]GPYPCNGP-NH2
modifications: disulfide 4-14; N-terminus assumed
SMILES: C[C@@H](O)[C@@H]1NC(=O)[C@@H](NC(=O)[C@H](Cc2ccccc2)NC(=O)[C@H](CCCNC(=N)N)NC(=O)[C@@H](N)CCC(N)=O)C(C)(C)SSC[C@@H](C(=O)N[C@@H](CC(N)=O)C(=O)NCC(=O)N2CCC[C@H]2C(N)=O)NC(=O)[C@@H]2CCCN2C(=O)[C@H](Cc2ccc(O)cc2)NC(=O)[C@@H]2CCCN2C(=O)CNC(=O)[C@@H](Cc2ccccc2)NC(=O)[C@H](Cc2ccccc2)NC(=O)[C@H](Cc2c[nH]cn2)NC(=O)CNC1=O
As for B4, in test [1], binding was characterised by a dissociation constant (Kd) of 18.3 µM. In test [2], the IC50 amounted to 39 µM.
For the molecule QRFXTGHFXGLYPCNGP (Pen4; D-Asp9; disulfide; C-terminal amide) [Peptide No. 47], the results for the dissociation constant Kd in test [1] and in test [3] were 0.58 µM and 4.9 µM, respectively.
QRFXTGHFGXWYPCNGP (Pen4; Sar10; disulfide; C-terminal amide) [Peptide No. 238] yielded a Kd in test [1] of 0.068 µM. The molecule also yielded a concentration for half-maximal inhibition (IC50) in test [2] of 1 µM.
Turning to RFXTGHFGGXYPCNGP (Pen3; NMeLeu10; disulfide; C-terminal amide) [Peptide No. 146], the dissociation constant Kd in test [1] is 0.059 µM; in test [3] it was 0.28 µM. The molecule also showed an IC50 in test [2] of 2.1 µM.
Take QRFXTGHFXGLYPCNGP (Pen4; D-Phe9; disulfide; C-terminal amide) [Peptide No. 52]: binding in test [1] was put at a Kd of 0.51 µM. Further, the IC50 in test [2] was found to be 2.8 µM.

B5: Peptide No. 239 (peptide)
peptide: RFXTGHFXXYPC
modifications: Pen3; X8 = 3(R)-amino-2-oxo-1-azepine acetic acid; NMeLeu9; disulfide; C-terminal amide
Consider B5, for which the equilibrium dissociation constant (Kd) in test [1] was 0.044 µM. The molecule further returned an IC50 in test [2] of 0.62 µM.
For QRFXTGHFXGLYPCNGP (Pen4; D-Ile9; disulfide; C-terminal amide) [Peptide No. 51], in that order: 2.6 µM and 9.4 µM.

B6: Peptide No. 246 (peptide)
peptide: RFVTGHFG[dP]WYPA-NH2
modifications: N-terminus assumed
SMILES: CC(C)[C@H](NC(=O)[C@H](Cc1ccccc1)NC(=O)[C@@H](N)CCCNC(=N)N)C(=O)N[C@H](C(=O)NCC(=O)N[C@@H](Cc1c[nH]cn1)C(=O)N[C@@H](Cc1ccccc1)C(=O)NCC(=O)N1CCC[C@@H]1C(=O)N[C@@H](Cc1c[nH]c2ccccc12)C(=O)N[C@@H](Cc1ccc(O)cc1)C(=O)N1CCC[C@H]1C(=O)N[C@@H](C)C(N)=O)[C@@H](C)O
For B6, the dissociation constant (Kd) in test [1] came out at 3.6 µM. Further, the 50% inhibitory concentration (IC50) in test [2] amounted to 60 µM.
Taken in the same sequence, the figures for QRFXTGHFGXLYPXNGP (Pen4; D-Pro10; Pen14; disulfide; C-terminal amide) [Peptide No. 295] were 0.28 µM and 1.6 µM.

By Kd is commonly meant a measure of binding affinity in units of concentration. The low end stands for higher affinity, the high end for lower affinity. What is called IC50 is the concentration that gives 50% inhibition.
